Source: US20220332804A1 (CSL INNOVATION, published 2022)

How the values were obtained:
Experiment in all cases: SPR, mAb captured, C2 mutant analyte;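 note: Anti-C2 mAbs captured on goat anti-human IgG Biacore CM5 chips, alanine or serine C2 surface mutants flowed over at 37 °C, double-referenced sensorgrams fitted to a 1:1 binding model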
[1] = target: T1, human C2 L620A (human, UniProt P06681 21-752)
T1 sequence: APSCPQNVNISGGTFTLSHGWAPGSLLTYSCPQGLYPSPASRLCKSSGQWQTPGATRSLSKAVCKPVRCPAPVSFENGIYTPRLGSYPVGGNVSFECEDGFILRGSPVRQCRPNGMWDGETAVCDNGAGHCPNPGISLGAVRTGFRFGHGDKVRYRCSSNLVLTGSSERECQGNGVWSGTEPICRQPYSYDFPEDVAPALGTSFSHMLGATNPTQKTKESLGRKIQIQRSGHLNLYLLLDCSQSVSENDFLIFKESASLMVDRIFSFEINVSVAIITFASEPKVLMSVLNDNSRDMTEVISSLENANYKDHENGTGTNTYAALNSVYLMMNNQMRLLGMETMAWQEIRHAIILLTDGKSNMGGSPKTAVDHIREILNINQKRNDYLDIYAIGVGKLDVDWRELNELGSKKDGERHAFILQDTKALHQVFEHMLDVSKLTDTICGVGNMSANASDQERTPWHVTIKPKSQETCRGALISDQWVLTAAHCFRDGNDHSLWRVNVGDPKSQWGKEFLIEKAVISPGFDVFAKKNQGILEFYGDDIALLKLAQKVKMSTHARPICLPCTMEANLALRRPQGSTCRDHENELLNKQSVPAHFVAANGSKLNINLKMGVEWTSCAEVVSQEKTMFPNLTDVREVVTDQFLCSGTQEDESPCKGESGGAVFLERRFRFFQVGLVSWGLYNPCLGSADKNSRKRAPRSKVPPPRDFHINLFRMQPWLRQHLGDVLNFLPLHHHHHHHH

[2] = target: T2, human C2 M452A (human, UniProt P06681 21-752)
T2 sequence: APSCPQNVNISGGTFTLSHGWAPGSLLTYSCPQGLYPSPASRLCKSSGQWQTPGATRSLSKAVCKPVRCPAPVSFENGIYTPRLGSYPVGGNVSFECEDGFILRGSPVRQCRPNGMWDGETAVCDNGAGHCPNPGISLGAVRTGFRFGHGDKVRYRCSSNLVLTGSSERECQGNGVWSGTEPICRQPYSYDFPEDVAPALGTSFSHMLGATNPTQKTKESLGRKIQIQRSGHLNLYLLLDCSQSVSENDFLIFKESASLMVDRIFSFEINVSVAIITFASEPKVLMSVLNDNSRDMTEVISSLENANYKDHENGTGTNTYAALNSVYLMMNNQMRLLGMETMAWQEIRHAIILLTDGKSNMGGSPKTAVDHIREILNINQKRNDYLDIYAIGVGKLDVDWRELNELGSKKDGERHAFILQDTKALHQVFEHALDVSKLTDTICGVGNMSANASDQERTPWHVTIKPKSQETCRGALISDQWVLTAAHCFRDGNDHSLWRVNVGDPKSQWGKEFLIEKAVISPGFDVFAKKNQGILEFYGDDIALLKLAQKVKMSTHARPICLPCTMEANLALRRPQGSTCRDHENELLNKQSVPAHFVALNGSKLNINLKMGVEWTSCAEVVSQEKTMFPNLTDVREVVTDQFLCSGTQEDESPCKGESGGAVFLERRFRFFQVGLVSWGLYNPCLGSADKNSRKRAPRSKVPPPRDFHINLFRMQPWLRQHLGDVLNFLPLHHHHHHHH

[3] = target: T3, human C2 K443A (human, UniProt P06681 21-752)
T3 sequence: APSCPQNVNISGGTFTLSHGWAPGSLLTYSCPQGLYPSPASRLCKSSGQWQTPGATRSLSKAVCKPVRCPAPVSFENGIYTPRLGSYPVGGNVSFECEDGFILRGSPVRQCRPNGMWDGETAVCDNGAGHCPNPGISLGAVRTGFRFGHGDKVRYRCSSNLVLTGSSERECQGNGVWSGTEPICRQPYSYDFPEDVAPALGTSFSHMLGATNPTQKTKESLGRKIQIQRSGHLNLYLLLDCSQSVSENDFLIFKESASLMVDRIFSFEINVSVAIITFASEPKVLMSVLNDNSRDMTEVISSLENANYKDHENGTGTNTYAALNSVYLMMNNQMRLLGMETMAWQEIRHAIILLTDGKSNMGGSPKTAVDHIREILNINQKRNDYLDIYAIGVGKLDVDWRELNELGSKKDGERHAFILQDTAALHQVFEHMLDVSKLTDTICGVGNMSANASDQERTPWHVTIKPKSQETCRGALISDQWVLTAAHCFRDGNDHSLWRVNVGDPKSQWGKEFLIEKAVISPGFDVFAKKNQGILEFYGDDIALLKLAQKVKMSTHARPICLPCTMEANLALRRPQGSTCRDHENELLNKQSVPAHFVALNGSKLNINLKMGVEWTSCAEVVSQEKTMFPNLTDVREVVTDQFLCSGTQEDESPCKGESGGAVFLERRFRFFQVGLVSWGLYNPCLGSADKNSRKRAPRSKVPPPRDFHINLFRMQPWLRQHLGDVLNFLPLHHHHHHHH

[4] = target: T4, human C2 H331A (human, UniProt P06681 21-752)
T4 sequence: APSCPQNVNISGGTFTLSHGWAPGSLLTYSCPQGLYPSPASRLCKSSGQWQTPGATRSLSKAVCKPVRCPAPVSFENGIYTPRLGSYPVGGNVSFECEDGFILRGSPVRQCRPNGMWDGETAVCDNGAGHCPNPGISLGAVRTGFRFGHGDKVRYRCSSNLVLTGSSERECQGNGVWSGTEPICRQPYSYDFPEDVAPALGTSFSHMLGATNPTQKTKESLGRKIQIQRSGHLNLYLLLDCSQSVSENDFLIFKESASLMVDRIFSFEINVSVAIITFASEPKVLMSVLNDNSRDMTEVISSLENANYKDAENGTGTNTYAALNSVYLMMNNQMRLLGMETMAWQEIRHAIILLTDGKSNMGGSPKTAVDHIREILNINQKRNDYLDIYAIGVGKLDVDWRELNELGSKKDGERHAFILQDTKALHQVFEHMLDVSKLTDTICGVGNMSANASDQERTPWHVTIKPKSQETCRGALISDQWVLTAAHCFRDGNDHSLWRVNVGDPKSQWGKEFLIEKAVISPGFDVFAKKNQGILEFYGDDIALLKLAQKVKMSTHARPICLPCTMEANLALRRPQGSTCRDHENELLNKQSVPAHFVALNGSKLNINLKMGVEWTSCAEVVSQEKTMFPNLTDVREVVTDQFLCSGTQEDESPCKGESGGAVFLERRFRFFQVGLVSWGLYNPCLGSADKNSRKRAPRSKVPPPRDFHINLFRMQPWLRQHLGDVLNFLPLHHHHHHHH

B1: RF16-214 (antibody, V domains shown)
VH: EVQLLESGGGLVQPGGSLRLSCAASGFTFSWYQMMWVRQAPGKGLEWVSRIYPSGGGTAYADSVKGRFTISRDNSKNTLYLQMNSLRAEDTAVYYCARDAGYGDNWGQGTLVTVSS
VL: QSALTQPPSVSVSPGQTASITCSGDKLGEKYASWYQQKAGQSPVMVIYQDRKRPSGIPERFSGSNSGNTATLTISGTQAMDEADYYCQAWDTRAVVFGGGTKLTVLG
Kd [1]: 30.8 nM
Kd [2]: 21.3 nM
binding result [3]: no binding
binding result [4]: no binding
